According to US20240116985A1 (published 2024):
Starred links: 1 amine or outer side, 2 acyl side, 3 side chain; linkers in the order of their positions; H or OH if unused. Positions of bridges follow the written chain, without caps; N, C: chain ends. Non-standard residues stand in square brackets, D forms with d. Primed or numbered codes have the meaning given here. *: point of attachment. PyrS2″ = (S)-3-amino-1-((pent-4-en-1-yloxy)carbonyl)pyrrolidine-3-carboxylic acid (stapling residue), C=CCCCOC(=O)N1CC[C@@](N[*:1])(C(=O)[*:2])C1; B5(4) = 2,2-bis(4-pentenyl)glycine = 2-amino-2-(pent-4-en-1-yl)hept-6-enoic acid (stitching residue), C=CCCCC(CCCC=C)(N[*:1])C(=O)[*:2]; B5 = 2-amino-2-(pent-4-en-1-yl)hept-6-enoic acid, C=CCCCC(CCCC=C)(N[*:1])C(=O)[*:2]; Phe(3-COOH) = N[C@@H](Cc1cccc(C(=O)O)c1)C(=O)O; 2F3MeF = Cc1cccc(C[C@H](N[*:1])C(=O)[*:2])c1F; Bta = N[C@@H](Cc1csc2ccccc12)C(=O)O; Lys(iPr) = CC(C)NCCCC[C@H](N)C(=O)O; hTyr = N[C@@H](CCc1ccc(O)cc1)C(=O)O; αAllylPro = C=CC[C@@]1(C(=O)O)CCCN1; Azidoacetyl = [N-]=[N+]=NCC(=O)*; tBuAla = CC(C)(C)C[C@H](N)C(=O)O; 3Thi = N[C@@H](Cc1ccsc1)C(=O)O; Cha = N[C@@H](CC1CCCCC1)C(=O)O; S8 = C=CCCCCCC[C@](C)(N)C(=O)O; Picolinoyl = O=C(c1ccccn1)*; PyrS2(4) = not defined here; hSer = N[C@@H](CCO)C(=O)O; PhAc = O=C(Cc1ccccc1)*

T1: Bcat-Halo (UniProt P35222 1-781)
T1 sequence (looked up): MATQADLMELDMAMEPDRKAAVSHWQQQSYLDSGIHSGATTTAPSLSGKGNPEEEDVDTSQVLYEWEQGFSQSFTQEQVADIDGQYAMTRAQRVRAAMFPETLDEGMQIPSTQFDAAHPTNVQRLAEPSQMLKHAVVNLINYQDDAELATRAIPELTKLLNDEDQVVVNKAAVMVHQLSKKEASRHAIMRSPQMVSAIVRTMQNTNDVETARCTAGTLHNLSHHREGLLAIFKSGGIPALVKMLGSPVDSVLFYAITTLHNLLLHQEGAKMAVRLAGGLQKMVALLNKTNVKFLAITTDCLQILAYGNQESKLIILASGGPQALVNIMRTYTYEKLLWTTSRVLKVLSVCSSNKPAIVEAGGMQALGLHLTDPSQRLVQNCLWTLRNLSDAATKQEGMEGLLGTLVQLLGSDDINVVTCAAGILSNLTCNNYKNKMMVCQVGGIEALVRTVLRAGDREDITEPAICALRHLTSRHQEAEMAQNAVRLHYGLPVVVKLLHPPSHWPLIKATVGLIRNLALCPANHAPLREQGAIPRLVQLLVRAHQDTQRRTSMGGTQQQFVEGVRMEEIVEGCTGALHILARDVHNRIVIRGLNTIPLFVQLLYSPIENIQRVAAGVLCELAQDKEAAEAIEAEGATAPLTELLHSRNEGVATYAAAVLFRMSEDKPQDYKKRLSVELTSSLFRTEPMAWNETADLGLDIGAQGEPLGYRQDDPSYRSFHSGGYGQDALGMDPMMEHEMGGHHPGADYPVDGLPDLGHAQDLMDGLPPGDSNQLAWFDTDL

T2: full-length beta-Catenin (Uniprot ID P35222) (Homo sapiens (Human), UniProt P35222 1-781)
T2 construct: The assay text says 'full-length beta-Catenin (Uniprot ID P35222)'; also called bCat; B-Catenin
T2 sequence: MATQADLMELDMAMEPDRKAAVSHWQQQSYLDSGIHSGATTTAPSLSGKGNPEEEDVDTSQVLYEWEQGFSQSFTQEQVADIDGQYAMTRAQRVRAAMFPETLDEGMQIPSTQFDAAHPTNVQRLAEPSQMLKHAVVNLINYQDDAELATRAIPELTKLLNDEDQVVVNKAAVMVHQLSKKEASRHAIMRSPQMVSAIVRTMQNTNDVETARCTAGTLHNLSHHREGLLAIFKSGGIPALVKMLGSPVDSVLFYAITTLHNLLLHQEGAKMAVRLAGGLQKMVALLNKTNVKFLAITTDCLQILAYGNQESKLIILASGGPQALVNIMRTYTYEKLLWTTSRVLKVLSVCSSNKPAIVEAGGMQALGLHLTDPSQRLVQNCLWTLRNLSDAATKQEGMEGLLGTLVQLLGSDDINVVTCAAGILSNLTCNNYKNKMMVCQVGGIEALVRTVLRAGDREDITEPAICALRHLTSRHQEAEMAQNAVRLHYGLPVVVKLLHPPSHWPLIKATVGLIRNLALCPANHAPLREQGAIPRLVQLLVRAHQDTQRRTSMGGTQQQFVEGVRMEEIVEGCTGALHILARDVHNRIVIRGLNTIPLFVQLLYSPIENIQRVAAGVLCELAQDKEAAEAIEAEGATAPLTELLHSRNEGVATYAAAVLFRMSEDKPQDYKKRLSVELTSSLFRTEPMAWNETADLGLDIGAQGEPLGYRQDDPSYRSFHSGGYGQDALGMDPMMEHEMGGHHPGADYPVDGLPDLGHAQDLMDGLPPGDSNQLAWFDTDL

B1: I-2120 (peptide)
peptide: Ac-[αAllylPro]D[tBuAla][B5(4)]DHAA[Phe(3-COOH)][hSer][PyrS2(4)][3Thi][Bta]Q-NH2
modifications: staple 1-4, 4-11; reading uncertain; also: earlier eluting HPLC isomer composition, printed as Ac-PL3-Asp-Npg-B5-Asp-His-Ala-Ala-3COOHF-Hse-PyrS2-3Thi-BztA-Gln-NH2
B2: I-591 (peptide)
peptide: Ac-[αAllylPro]DI[B5(4)]DEK(Azidoacetyl)AFQ[S8]F[Bta]Q-NH2
modifications: staple 1-4, 4-11; not fully specified; printed as Ac-PL3-Asp-Ile-B5-Asp-Glu-[AzAc]Lys-Ala-Phe-Gln-S8-Phe-BztA-Gln-NH2
notes: Stapled peptide composition
B3: I-596 (peptide)
peptide: XDIXDEAAFQXFXQK
modifications: not fully specified; Ac-PL3-Asp-Ile-B5-Asp-Glu-Ala-Ala-Phe-Gln-S8-Phe-BztA-Gln-[AzAc]Lys-NH2; stapled PL3(1)-B5(4) and B5(4)-S8(11) by olefin metathesis
notes: Stapled peptide composition
B4: I-597 (peptide)
peptide: Ac-[αAllylPro]DI[B5]DEAAFQ[S8]F[Bta]QK(Azidoacetyl)-NH2
modifications: staple 1-4, 4-11; not fully specified
notes: Stapled peptide composition; same description as I-596, later eluting HPLC peak (staple isomer)
B5: I-599 (peptide)
peptide: Picolinoyl-[αAllylPro]DI[B5]DEAAFQ[S8]F[Bta]Q-NH2
modifications: staple 1-4, 4-11
notes: Stapled peptide composition; N-terminal cap Pic
B6: I-600 (peptide)
peptide: PhAc-[αAllylPro]DI[B5]DEAAFQ[S8]F[Bta]Q-NH2
modifications: staple 1-4, 4-11
notes: Stapled peptide composition; N-terminal cap Bnc
B7: I-601 (peptide)
peptide: XDIXDEAAFQXFXQ
modifications: Bnc-PL3-Asp-Ile-B5-Asp-Glu-Ala-Ala-Phe-Gln-S8-Phe-BztA-Gln-NH2; stapled PL3(1)-B5(4) and B5(4)-S8(11) by olefin metathesis
notes: Stapled peptide composition; N-terminal cap Bnc; same description as I-600, later eluting HPLC peak (staple isomer)
B8: I-602 (peptide)
peptide: XDIXDEAAFQXFXQ
modifications: 2PyPrpc-PL3-Asp-Ile-B5-Asp-Glu-Ala-Ala-Phe-Gln-S8-Phe-BztA-Gln-NH2; stapled PL3(1)-B5(4) and B5(4)-S8(11) by olefin metathesis
notes: Stapled peptide composition; N-terminal cap 2PyPrpc

These binders were tested against T1, Bcat-Halo (assay: cell-based or functional assay).

Point of comparison: Ac-[αAllylPro]D[tBuAla][B5(4)]D[hTyr]AA[Phe(3-COOH)][hSer][PyrS2″][3Thi][Bta]Q-NH2 (staple 1-4, 4-11; also: earlier eluting HPLC isomer composition) [I-2116], “NanoBRET Abs IC50” value 33.4 µM. Against it:
- Ac-[αAllylPro]D[tBuAla][B5(4)]D[Phe(3-COOH)]A[dA]FL[PyrS2″][3Thi][Bta]A-NH2 (staple 1-4, 4-11; also: earlier-eluting HPLC isomer composition) [I-2096] — not separable, > 20 µM
- Ac-[αAllylPro]D[tBuAla][B5(4)]D[Phe(3-COOH)]A[dA]FL[PyrS2″][3Thi][Bta]A-NH2 (staple 1-4, 4-11; also: later-eluting HPLC isomer composition) [I-2097] — within 1.5-fold, 22.3 µM
- Ac-[αAllylPro]D[tBuAla][B5(4)]D[Phe(3-COOH)]A[dA]FL[PyrS2″][2F3MeF][Bta]A-NH2 (staple 1-4, 4-11; also: earlier-eluting HPLC isomer composition) [I-2098] — not separable, > 20 µM
- Ac-[αAllylPro]D[tBuAla][B5(4)]D[Phe(3-COOH)]A[dA]FL[PyrS2″][3Thi][Bta][dA]-NH2 (staple 1-4, 4-11) [I-2100] — not separable, > 20 µM
- Ac-[αAllylPro]N[Cha][B5(4)]DQ[Lys(iPr)]AF[Lys(iPr)][PyrS2″]F[Bta][hSer]-NH2 (staple 1-4, 4-11) [I-2102] — not separable, > 20 µM
- Ac-[αAllylPro]N[Cha][B5(4)]DQ[Lys(iPr)]AFN[PyrS2″]F[Bta]H-NH2 (staple 1-4, 4-11) [I-2109] — not separable, > 20 µM
- Ac-[αAllylPro]N[Cha][B5(4)]DQ[Lys(iPr)]AFN[PyrS2″]F[Bta]K-NH2 (staple 1-4, 4-11) [I-2110] — not separable, > 20 µM
- Ac-[αAllylPro]N[Cha][B5(4)]DQ[Lys(iPr)]AFN[PyrS2″]F[Bta]N-NH2 (staple 1-4, 4-11) [I-2111] — not separable, > 20 µM
- Ac-[αAllylPro]D[tBuAla][B5(4)]D[hTyr]AA[Phe(3-COOH)]N[PyrS2″][3Thi][Bta]Q-NH2 (staple 1-4, 4-11; also: earlier eluting HPLC isomer composition) [I-2114] — not separable, > 20 µM
- Ac-[αAllylPro]D[tBuAla][B5(4)]D[hTyr]AA[Phe(3-COOH)]N[PyrS2″][3Thi][Bta]Q-NH2 (staple 1-4, 4-11; also: later eluting HPLC isomer composition) [I-2115] — not separable, > 20 µM
- Ac-[αAllylPro]D[tBuAla][B5(4)]D[hTyr]AA[Phe(3-COOH)][hSer][PyrS2″][3Thi][Bta]Q-NH2 (staple 1-4, 4-11; also: later eluting HPLC isomer composition) [I-2117] — not separable, > 20 µM
- Ac-[αAllylPro]D[tBuAla][B5(4)]DHAA[Phe(3-COOH)]N[PyrS2″][3Thi][Bta]Q-NH2 (staple 1-4, 4-11; also: earlier eluting HPLC isomer composition) [I-2118] — not separable, > 20 µM
- Ac-[αAllylPro]D[tBuAla][B5(4)]DHAA[Phe(3-COOH)]N[PyrS2″][3Thi][Bta]Q-NH2 (staple 1-4, 4-11; also: later eluting HPLC isomer composition) [I-2119] — not separable, > 20 µM
- B1 — within 1.5-fold, 37.2 µM
- Ac-[αAllylPro]D[tBuAla][B5(4)]DHAA[Phe(3-COOH)][hSer][PyrS2″][3Thi][Bta]Q-NH2 (staple 1-4, 4-11; also: later eluting HPLC isomer composition) [I-2121] — not separable, > 20 µM
- Ac-[αAllylPro]D[tBuAla][B5(4)]DHAA[Phe(3-COOH)]L[PyrS2″][3Thi][Bta]Q-NH2 (staple 1-4, 4-11; also: earlier eluting HPLC isomer composition) [I-2122] — within 1.5-fold, 34.4 µM
- Ac-[αAllylPro]D[tBuAla][B5(4)]DHAA[Phe(3-COOH)]L[PyrS2″][3Thi][Bta]Q-NH2 (staple 1-4, 4-11; also: later eluting HPLC isomer composition) [I-2123] — within 1.5-fold, 26.9 µM
- Ac-[αAllylPro]D[tBuAla][B5(4)]DYAA[Phe(3-COOH)][hSer][PyrS2″][3Thi][Bta]Q-NH2 (staple 1-4, 4-11; also: earlier eluting HPLC isomer composition) [I-2124] — within 1.5-fold, 38.9 µM

What follows are binders tested against T2, full-length beta-Catenin (Uniprot ID …) (assay: fluorescence polarization competition; full-length beta-catenin, competitor 5FAM-TCF4(10-53) probe).
Description: The plate was incubated protected from light for 60 minutes at 20° C. prior to read. Reads were performed on a CLARIOstar plate reader (BMG Labtech) in duplicate, and data were fitted to a 1:1 binding model with hill slope using an in-house script. All provided concentrations are final concentrations.

Point of comparison: B7, EC50 0.419 µM. Against it:
- B2 — 6.5-fold lower, 0.064 µM
- Ac-[αAllylPro]DI[B5]DEK(Azidoacetyl)AFQ[S8]F[Bta]Q-NH2 (staple 1-4, 4-11; not fully specified, Stapled peptide composition) [I-592] — 17-fold lower, 0.024 µM
- Ac-[αAllylPro]DI[B5]DEAK(Azidoacetyl)FQ[S8]F[Bta]Q-NH2 (staple 1-4, 4-11, Stapled peptide composition) [I-593] — 6.2-fold lower, 0.068 µM
- Ac-[αAllylPro]DI[B5]DEAAFK(Azidoacetyl)[S8]F[Bta]Q-NH2 (staple 1-4, 4-11, Stapled peptide composition) [I-594] — 4.8-fold lower, 0.087 µM
- Ac-[αAllylPro]DI[B5]DEAAFQ[S8]F[Bta]K(Azidoacetyl)-NH2 (staple 1-4, 4-11, Stapled peptide composition) [I-595] — 7.4-fold lower, 0.057 µM
- Ac-[αAllylPro]DI[B5]DQAAFQ[S8]F[Bta]Q-NH2 (staple 1-4, 4-11, Stapled peptide composition) [I-603] — within 1.5-fold, 0.392 µM
- B3 — 3.7-fold lower, 0.112 µM
- B4 — 5.5-fold lower, 0.076 µM
- B5 — 3-fold lower, 0.138 µM
- B6 — 1.9-fold higher, 0.796 µM
- B8 — 7.5-fold higher, 3.15 µM
